Assay results reported in patent US7364741.

Experiments:
[1] = biological target: HLA-A2.1 molecules expressed by 174CEM.T2 cells (human); experiment: T2 HLA-A2.1 stabilisation, flow cytometry (BB7.2), peptide 200 ug/ml
[2] = biological target: HLA-A1 molecules isolated from the EBV transformed cell line Steinlin (human)
[3] = biological target: HLA-A3.2 molecules isolated from the EBV transformed cell line GM3107 (human)
[4] = biological target: HLA-A11.2 molecules isolated from the cell line BVR (human)
[5] = biological target: HLA-A24 molecules isolated from the EBV transformed cell line KT3 (human)
[6] = biological target: HLA-A2.1 molecules isolated from the EBV transformed cell line JY (human)

## […] (residues 25-33 of HPV16 protein E6) (peptide; other documents disagree on this pair)
[1]
  FI (Fluorescence Index): 0.6
  MF (mean fluorescence): 108

## […] (residues 82-90 of HPV16 protein E7) (peptide; other documents disagree on this pair)
[1]
  FI (Fluorescence Index): 0.8
  MF (mean fluorescence): 119

## … (residues 19-27 of HPV16 protein E7), synthesized with alanine instead of cysteine (peptide; other documents disagree on this pair)
[2]
  binding ratio to standard: 0.023

## … (residues 33-41 of HPV16 protein E6), synthesized with alanine instead of cysteine (peptide; other documents disagree on this pair)
[3]
  binding ratio to standard: 1.5
[4]
  binding ratio to standard: 6.7

## … (residues 37-45 of HPV16 protein E6) with alanine instead of cysteine (peptide; other documents disagree on this pair)
[3]
  binding ratio to standard: 0.032
[4]
  binding ratio to standard: 0.045

## … (residues 38-46 of HPV16 protein E6), synthesized with alanine instead of cysteine (peptide; other documents disagree on this pair)
[3]
  binding ratio to standard: 0.0012
[5]
  binding ratio to standard: 0.0011
[4]
  binding ratio to standard: 0.0022

## … (residues 51-59 of HPV16 protein E7), synthesized with alanine instead of cysteine (peptide; other documents disagree on this pair)
[3]
  binding ratio to standard: 0.026
[4]
  binding ratio to standard: 0.001

## … (residues 52-60 of HPV16 protein E6), synthesized with alanine instead of cysteine (peptide; other documents disagree on this pair)
[6]
  binding ratio to standard: 0.37

## … (residues 52-60 of HPV16 protein E7), synthesized with alanine instead of cysteine (peptide; other documents disagree on this pair)
[3]
  binding ratio to standard: 0.0067
[4]
  binding ratio to standard: 0.006

## … (residues 58-66 of HPV16 protein E7), synthesized with alanine instead of cysteine (peptide; other documents disagree on this pair)
[3]
  binding ratio to standard: 0.0016
[4]
  binding ratio to standard: 0.011

## … (residues 60-68 of HPV16 protein E7), synthesized with alanine instead of cysteine (peptide; other documents disagree on this pair)
[3]
  binding ratio to standard: 0.0012

## … (residues 66-74 of HPV16 protein E6), synthesized with alanine instead of cysteine (peptide; other documents disagree on this pair)
[5]
  binding ratio to standard: 0.0055

## … (residues 67-75 of HPV16 protein E6), synthesized with alanine instead of cysteine (peptide; other documents disagree on this pair)
[3]
  binding ratio to standard: 0.0012
[4]
  binding ratio to standard: 0.0074

## … (residues 68-76 of HPV16 protein E6), synthesized with alanine instead of cysteine (peptide; other documents disagree on this pair)
[3]
  binding ratio to standard: 0.0056
[4]
  binding ratio to standard: 0.0037

## … (residues 69-77 of HPV16 protein E6), synthesized with alanine instead of cysteine (peptide; other documents disagree on this pair)
[3]
  binding ratio to standard: 0.0025
[4]
  binding ratio to standard: 0.003

## … (residues 72-80 of HPV16 protein E6), synthesized with alanine instead of cysteine (peptide; other documents disagree on this pair)
[5]
  binding ratio to standard: 0.11

## … (residues 79-87 of HPV16 protein E6) with alanine instead of cysteine (peptide; other documents disagree on this pair)
[3]
  binding ratio to standard: 0.0044
[4]
  binding ratio to standard: 0.0076

## … (residues 80-88 of HPV16 protein E6), synthesized with alanine instead of cysteine (peptide; other documents disagree on this pair)
[3]
  binding ratio to standard: 0.0064
[4]
  binding ratio to standard: 0.43

## … (residues 82-90 of HPV16 protein E6), synthesized with alanine instead of cysteine (peptide; other documents disagree on this pair)
[5]
  binding ratio to standard: 0.046

## … (residues 84-92 of HPV16 protein E6), synthesized with alanine instead of cysteine (peptide; other documents disagree on this pair)
[3]
  binding ratio to standard: 0.0036

## … (residues 85-93 of HPV16 protein E6), synthesized with alanine instead of cysteine (peptide; other documents disagree on this pair)
[5]
  binding ratio to standard: 0.0037

## … (residues 86-94 of HPV16 protein E7) (peptide)
[1]
  FI (Fluorescence Index): 2.5
  MF (mean fluorescence): 228

## … (residues 87-95 of HPV16 protein E6), synthesized with alanine instead of cysteine (peptide; other documents disagree on this pair)
[5]
  binding ratio to standard: 0.12

## … (residues 90-98 of HPV16 protein E7), synthesized with alanine instead of cysteine (peptide; other documents disagree on this pair)
[4]
  binding ratio to standard: 0.0012

## … (residues 97-105 of HPV16 protein E6), synthesized with alanine instead of cysteine (peptide; other documents disagree on this pair)
[3]
  binding ratio to standard: 0.0045

## … (residues 107-115 of HPV16 protein E6), synthesized with alanine instead of cysteine (peptide; other documents disagree on this pair)
[3]
  binding ratio to standard: 3.7
[4]
  binding ratio to standard: 0.012

## … (residues 139-147 of HPV16 protein E6), synthesized with alanine instead of cysteine (peptide; other documents disagree on this pair)
[2]
  binding ratio to standard: 0.02

## … (residues 140-148 of HPV16 protein E6), synthesized with alanine instead of cysteine (peptide; other documents disagree on this pair)
[4]
  binding ratio to standard: 0.0012

## … (residues 143-151 of HPV16 protein E6), synthesized with alanine instead of cysteine (peptide; other documents disagree on this pair)
[3]
  binding ratio to standard: 0.18
[4]
  binding ratio to standard: 0.0084

## … (residues 144-152 of HPV16 protein E6), synthesized with alanine instead of cysteine (peptide; other documents disagree on this pair)
[2]
  binding ratio to standard: 0.019

## … (residues 145-153 of HPV16 protein E6), synthesized with alanine instead of cysteine (peptide; other documents disagree on this pair)
[3]
  binding ratio to standard: 0.02

## … (residues 146-154 of HPV16 protein E6), synthesized with alanine instead of cysteine (peptide; other documents disagree on this pair)
[3]
  binding ratio to standard: 0.002
